Measured values: patent US20050042747A1, “Hivgp120-induced bob/gpr15 activation” (priority 2001, published 2005)

Tests used:
CXCR4 = CXCR4 (UniProt P61073); assay: quantitative cellular enzyme-linked assay on HT-29-D4 cells
GPR15/Bob (human) = GPR15/Bob (human) (UniProt P49685); assay: cell-based or functional assay
CCR5 = CCR5 (UniProt P51681); assay: cell-based or functional assay

Sequence of GPR15/Bob (human) (P49685 whole entry): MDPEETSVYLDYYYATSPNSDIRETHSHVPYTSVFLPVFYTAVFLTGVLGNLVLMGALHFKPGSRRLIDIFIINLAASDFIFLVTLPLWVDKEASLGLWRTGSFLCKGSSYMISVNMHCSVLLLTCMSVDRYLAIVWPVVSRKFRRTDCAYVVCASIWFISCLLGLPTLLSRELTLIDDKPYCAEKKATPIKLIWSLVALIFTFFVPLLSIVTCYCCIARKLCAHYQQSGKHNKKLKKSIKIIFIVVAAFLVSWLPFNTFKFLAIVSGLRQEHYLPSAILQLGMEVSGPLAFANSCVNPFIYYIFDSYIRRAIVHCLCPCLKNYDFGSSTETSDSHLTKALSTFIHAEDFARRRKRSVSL

## anti-CXCR4 mouse monoclonal antibody (clone 12G5)
CXCR4
  concentration giving saturation binding: 20 µg/mL

## gp120(IIIB), purified from HIV-1(IIIB) (from UniProt P03375 33-511) (ligand)
GPR15/Bob (human)
  relative TEER 20 min after the addition of gp120, HT-29-D4 cells (relative TEER): 1.6

## gp120(SEN) (ligand)
GPR15/Bob (human)
  relative TEER 20 min after the addition of gp120, HT-29-D4 cells (relative TEER): 2.52

## gp120CM235 (ligand)
GPR15/Bob (human)
  least gp120 concentration inducing calcium signaling, Bob-transfected Ghost (3) cells: 8 pM
  minimal concentration causing calcium signaling in HT-29 cells: 2.5 nM
  minimal gp120 concentration giving a calcium flux, transfected Ghost (3) cells: 10 pM

## gp120MN (from UniProt P05877 32-513) (ligand)
GPR15/Bob (human)
  calcium signaling in HT-29 cells: > 10 nM

## gp120SF2 (from UniProt P03378 32-509) (ligand)
GPR15/Bob (human)
  calcium signaling in HT-29 cells: > 10 nM

## gp12093TH975 (ligand)
CCR5
  minimal gp120 concentration giving a calcium flux, transfected Ghost (3) cells: 100 nM
GPR15/Bob (human)
  calcium signaling in HT-29 cells: > 10 nM
